The record followed here is paper PMC10318897, “The structure of Leptospira interrogans GAPDH sheds light into an immunoevasion factor that can target the anaphylatoxin C5a of innate immunity” (Frontiers in Immunology, 2023).

For data set [1], the system named is O=C[C@H](O)COP(=O)(O)O. In words: purified protein. To be noted: 2 mM NAD+, 5 mM phosphate, 40 mM Tris-HCl pH 8.5, 2 mM EDTA, 25 °C, fit with substrate inhibition.
The subject of data set [2] is NC(=O)c1ccc[n+]([C@@H]2O[C@H](COP(=O)(O)OP(=O)(O)OC[C@H]3O[C@@H](n4cnc5c(N)ncnc54)[C@H](O)[C@@H]3O)[C@@H](O)[C@H]2O)c1. In words: purified protein. To be noted: 2 mM G3P, 5 mM phosphate, 40 mM Tris-HCl pH 8.5, 2 mM EDTA, 25 °C.

By Km is commonly meant the substrate concentration at which the rate is half of its maximum. What is called kcat is the maximal rate divided by the concentration of active sites. The term kcat/Km denotes the second-order rate constant that governs catalysis at low substrate concentration. As for “LiGAPDH (Leptospira interrogans serovar Copenhageni str. Fiocruz L1-130)”, in data set [1], the Km is reported as 0.6 ± 0.1 mM, the turnover number (kcat) stood at 70 ± 7 s⁻¹ and the specificity constant (kcat/Km) was determined as 121000 ± 24000 M⁻¹ s⁻¹. Moreover, in data set [2], the Km turned out to be 0.081 ± 0.006 mM, the kcat stood at 44.2 ± 0.9 s⁻¹ and the kcat/Km came to 543000 ± 44000 M⁻¹ s⁻¹.
